For orientation: Kd means the free concentration of one partner at which half of the binding sites on the other are occupied at equilibrium, for simple one-to-one binding. Low readings indicate higher affinity, high ones lower affinity. One may read the koff as the first-order rate constant of dissociation. A higher koff goes with fast dissociation. For orientation: kon means the second-order rate constant of association. Low values mean slow association, high ones fast association.

The target of assay [1] is T1, soluble p97 (amino acids 20-710 of human p97 precursor), 6x his tag (human, UniProt P08582 20-710).
T1 construct: range 20-710; also called p97 melanotransferrin; recombinant p97; not shown: 6x his tag from vector pSecTag2
T1 sequence: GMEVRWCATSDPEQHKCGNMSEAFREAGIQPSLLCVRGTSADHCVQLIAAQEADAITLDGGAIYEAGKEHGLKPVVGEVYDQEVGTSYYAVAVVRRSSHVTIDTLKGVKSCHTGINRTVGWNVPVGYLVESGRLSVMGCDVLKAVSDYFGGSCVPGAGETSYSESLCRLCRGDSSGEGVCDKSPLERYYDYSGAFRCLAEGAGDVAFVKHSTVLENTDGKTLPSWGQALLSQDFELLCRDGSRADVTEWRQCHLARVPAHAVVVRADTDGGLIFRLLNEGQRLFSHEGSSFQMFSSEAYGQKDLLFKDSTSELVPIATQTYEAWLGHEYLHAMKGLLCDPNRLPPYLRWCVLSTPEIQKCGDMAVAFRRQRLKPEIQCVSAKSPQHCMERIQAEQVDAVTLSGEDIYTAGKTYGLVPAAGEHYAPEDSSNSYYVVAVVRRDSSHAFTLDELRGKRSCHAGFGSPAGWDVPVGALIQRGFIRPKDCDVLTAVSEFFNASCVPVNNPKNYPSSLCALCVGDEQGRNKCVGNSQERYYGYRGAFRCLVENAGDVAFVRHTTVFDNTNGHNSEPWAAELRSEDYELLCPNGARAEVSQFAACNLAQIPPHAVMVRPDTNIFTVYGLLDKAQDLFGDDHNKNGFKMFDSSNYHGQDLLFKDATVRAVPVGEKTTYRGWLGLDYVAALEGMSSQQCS
The experiment in a line: SPR, Biacore 2000, 25 C; p97 immobilised on CM5 chip, scFv fusion injected; 1:1 model. (In general: In SPR one partner is held on a chip, and binding of the other changes the refractive index at the surface.)

The target in assay [2] is T1, soluble p97 (amino acids 20-710 of …). Briefly: solid-phase binding assay on wells coated with soluble p97; crude refold normalised on beta-lactamase activity; nitrocefin read-out, OD 490 nm [a].
For assay [3] the target is unchanged. The experiment in a line: SEC binding assay with purified p97 (discussion of the example).

B1: parental L49-sFv-bL fusion protein FP95 (scFv)
scFv: MEVQLQESGPSLVKPSQTLSLTCSVTGDSITSGYWNWIRKFPGNKLEYMGYISDSGITYYNPSLKSRISITRDTSKNQYYLQLNFVTAEDTATYNCARRTLATYYAMDYWGQGTSVTVSSGSTSGSGKPGSGEGSTKGDFVMTQTPLSLPVSLGDQASISCRASQSLVHSNGNTYLHWYLQKPGQSPKLLIYRVSNRFSGVPDRFSGSGSGTDFTLKISRVEAEDLGVYFCSQSTHVPPTFGGGTKLEIKRTPVSEKQLAEVVANTITPLMKAQSVPGMAVAVIYQGKPHYYTFGKADIAANKPVTPQTLFELGSISKTFTGVLGGDAIARGEISLDDAVTRYWPQLTGKQWQGIRMLDLATYTAGGLPLQVPDEVTDNASLLRFYQNWQPQWKPGTTRLYANASIGLFGALAVKPSGMPYEQAMTTRVLKPLKLDHTWINVPKAEEAHYAWGYRDGKAVRVSPGMLDAQAYGVKTNVQDMANWVMANMAPENVADASLKQGIALAQSRYWRIGSMYQGLGWEMLNWPVEANTVVETSFGNVALAPLPVAEVNPPAPPVKASWVHKTGSTGGFGSYVAFIPEKQIGIVMLANTSYPNPARVEAAYHILEALQ
notes: also called L49-scFv-bL; parental molecule
On to B1, for which, in assay [1], binding was put at a Kd of 2.31 nM, the off-rate (koff) stood at 0.0007 s⁻¹ and the association rate constant (kon) was 304000 M⁻¹ s⁻¹.

B2: L49-sFv-bL mutant FP930 (K H39 Q) (scFv)
scFv: MEVQLQESGPSLVKPSQTLSLTCSVTGDSITSGYWNWIRQFPGNKLEYMGYISDSGITYYNPSLKSRISITRDTSKNQYYLQLNFVTAEDTATYNCARRTLATYYAMDYWGQGTSVTVSSGSTSGSGKPGSGEGSTKGDFVMTQTPLSLPVSLGDQASISCRASQSLVHSNGNTYLHWYLQKPGQSPKLLIYRVSNRFSGVPDRFSGSGSGTDFTLKISRVEAEDLGVYFCSQSTHVPPTFGGGTKLEIKRTPVSEKQLAEVVANTITPLMKAQSVPGMAVAVIYQGKPHYYTFGKADIAANKPVTPQTLFELGSISKTFTGVLGGDAIARGEISLDDAVTRYWPQLTGKQWQGIRMLDLATYTAGGLPLQVPDEVTDNASLLRFYQNWQPQWKPGTTRLYANASIGLFGALAVKPSGMPYEQAMTTRVLKPLKLDHTWINVPKAEEAHYAWGYRDGKAVRVSPGMLDAQAYGVKTNVQDMANWVMANMAPENVADASLKQGIALAQSRYWRIGSMYQGLGWEMLNWPVEANTVVETSFGNVALAPLPVAEVNPPAPPVKASWVHKTGSTGGFGSYVAFIPEKQIGIVMLANTSYPNPARVEAAYHILEALQ
For B2, the binding result in assay [2] is “binds”.

B3: 940 (scFv)
chain: MEVQLQESGPSLVKPSQTLSLTCSVTGDSITSGYWNWIRKFPGNKLEYMGYISDSGITYYNPSLKSRISITRDTSKNQAYLQLNFVTAEDTATYNCARRTLATYYAMDYWGQGTSVTVSSGSTSGSGKPGSGEGSTKGDFVMTQTPLSLPVSLGDQASISCRASQSLVHSNGNTYLHWYLQKPGQSPKLLIYRVSNRFSGVPDRFSGSGSGTDFTLKISRVEAEDLGVYFCSQSTHVPPTFGGGTKLEIKRTPVSEKQLAEVVANTITPLMKAQSVPGMAVAVIYQGKPHYYTFGKADIAANKPVTPQTLFELGSISKTFTGVLGGDAIARGEISLDDAVTRYWPQLTGKQWQGIRMLDLATYTAGGLPLQVPDEVTDNASLLRFYQNWQPQWKPGTTRLYANASIGLFGALAVKPSGMPYEQAMTTRVLKPLKLDHTWINVPKAEEAHYAWGYRDGKAVRVSPGMLDAQAYGVKTNVQDMANWVMANMAPENVADASLKQGIALAQSRYWRIGSMYQGLGWEMLNWPVEANTVVETSFGNVALAPLPVAEVNPPAPPVKASWVHKTGSTGGFGSYVAFIPEKQIGIVMLANTSYPNPARVEAAYHILEALQ
notes: also called FP940; L49-sFv-bL mutant FP940 (Y H78 A)
Take B3: in assay [2], the binding result is given as “binds”.

B4: 935 (scFv)
chain: MEVQLQESGPSLVKPSQTLSLTCSVTGDSITSGYWNWIRKFPGNKLEWMGYISDSGITYYNPSLKSRISITRDTSKNQYYLQLNFVTAEDTATYNCARRTLATYYAMDYWGQGTSVTVSSGSTSGSGKPGSGEGSTKGDFVMTQTPLSLPVSLGDQASISCRASQSLVHSNGNTYLHWYLQKPGQSPKLLIYRVSNRFSGVPDRFSGSGSGTDFTLKISRVEAEDLGVYFCSQSTHVPPTFGGGTKLEIKRTPVSEKQLAEVVANTITPLMKAQSVPGMAVAVIYQGKPHYYTFGKADIAANKPVTPQTLFELGSISKTFTGVLGGDAIARGEISLDDAVTRYWPQLTGKQWQGIRMLDLATYTAGGLPLQVPDEVTDNASLLRFYQNWQPQWKPGTTRLYANASIGLFGALAVKPSGMPYEQAMTTRVLKPLKLDHTWINVPKAEEAHYAWGYRDGKAVRVSPGMLDAQAYGVKTNVQDMANWVMANMAPENVADASLKQGIALAQSRYWRIGSMYQGLGWEMLNWPVEANTVVETSFGNVALAPLPVAEVNPPAPPVKASWVHKTGSTGGFGSYVAFIPEKQIGIVMLANTSYPNPARVEAAYHILEALQ
notes: also called FP935; L49-sFv-bL mutant FP935 (Y H47 W)
Take B4: in assay [2], the binding result is listed as “binds”.

B5: L49-sFv-bL mutant FP950 (N H91 Y) (scFv)
scFv: MEVQLQESGPSLVKPSQTLSLTCSVTGDSITSGYWNWIRKFPGNKLEYMGYISDSGITYYNPSLKSRISITRDTSKNQYYLQLNFVTAEDTATYYCARRTLATYYAMDYWGQGTSVTVSSGSTSGSGKPGSGEGSTKGDFVMTQTPLSLPVSLGDQASISCRASQSLVHSNGNTYLHWYLQKPGQSPKLLIYRVSNRFSGVPDRFSGSGSGTDFTLKISRVEAEDLGVYFCSQSTHVPPTFGGGTKLEIKRTPVSEKQLAEVVANTITPLMKAQSVPGMAVAVIYQGKPHYYTFGKADIAANKPVTPQTLFELGSISKTFTGVLGGDAIARGEISLDDAVTRYWPQLTGKQWQGIRMLDLATYTAGGLPLQVPDEVTDNASLLRFYQNWQPQWKPGTTRLYANASIGLFGALAVKPSGMPYEQAMTTRVLKPLKLDHTWINVPKAEEAHYAWGYRDGKAVRVSPGMLDAQAYGVKTNVQDMANWVMANMAPENVADASLKQGIALAQSRYWRIGSMYQGLGWEMLNWPVEANTVVETSFGNVALAPLPVAEVNPPAPPVKASWVHKTGSTGGFGSYVAFIPEKQIGIVMLANTSYPNPARVEAAYHILEALQ
For the molecule B5, in assay [2], the binding result is “binds”.

B6: L49-sFv-bL mutant FP945 (F H82B S) (scFv)
scFv: MEVQLQESGPSLVKPSQTLSLTCSVTGDSITSGYWNWIRKFPGNKLEYMGYISDSGITYYNPSLKSRISITRDTSKNQYYLQLNSVTAEDTATYNCARRTLATYYAMDYWGQGTSVTVSSGSTSGSGKPGSGEGSTKGDFVMTQTPLSLPVSLGDQASISCRASQSLVHSNGNTYLHWYLQKPGQSPKLLIYRVSNRFSGVPDRFSGSGSGTDFTLKISRVEAEDLGVYFCSQSTHVPPTFGGGTKLEIKRTPVSEKQLAEVVANTITPLMKAQSVPGMAVAVIYQGKPHYYTFGKADIAANKPVTPQTLFELGSISKTFTGVLGGDAIARGEISLDDAVTRYWPQLTGKQWQGIRMLDLATYTAGGLPLQVPDEVTDNASLLRFYQNWQPQWKPGTTRLYANASIGLFGALAVKPSGMPYEQAMTTRVLKPLKLDHTWINVPKAEEAHYAWGYRDGKAVRVSPGMLDAQAYGVKTNVQDMANWVMANMAPENVADASLKQGIALAQSRYWRIGSMYQGLGWEMLNWPVEANTVVETSFGNVALAPLPVAEVNPPAPPVKASWVHKTGSTGGFGSYVAFIPEKQIGIVMLANTSYPNPARVEAAYHILEALQ
B6: in assay [2], the binding result is listed as “binds”.

B7: L49-sFv-bL double mutant FP960 (F H82B S, N H91 Y) (scFv)
scFv: MEVQLQESGPSLVKPSQTLSLTCSVTGDSITSGYWNWIRKFPGNKLEYMGYISDSGITYYNPSLKSRISITRDTSKNQYYLQLNSVTAEDTATYYCARRTLATYYAMDYWGQGTSVTVSSGSTSGSGKPGSGEGSTKGDFVMTQTPLSLPVSLGDQASISCRASQSLVHSNGNTYLHWYLQKPGQSPKLLIYRVSNRFSGVPDRFSGSGSGTDFTLKISRVEAEDLGVYFCSQSTHVPPTFGGGTKLEIKRTPVSEKQLAEVVANTITPLMKAQSVPGMAVAVIYQGKPHYYTFGKADIAANKPVTPQTLFELGSISKTFTGVLGGDAIARGEISLDDAVTRYWPQLTGKQWQGIRMLDLATYTAGGLPLQVPDEVTDNASLLRFYQNWQPQWKPGTTRLYANASIGLFGALAVKPSGMPYEQAMTTRVLKPLKLDHTWINVPKAEEAHYAWGYRDGKAVRVSPGMLDAQAYGVKTNVQDMANWVMANMAPENVADASLKQGIALAQSRYWRIGSMYQGLGWEMLNWPVEANTVVETSFGNVALAPLPVAEVNPPAPPVKASWVHKTGSTGGFGSYVAFIPEKQIGIVMLANTSYPNPARVEAAYHILEALQ
In the case of B7, the “percent of purified protein bound to antigen” value in assay [3] amounted to 100%. In assay [1], this molecule had a Kd of 1.75 nM, a koff of 0.000638 s⁻¹ and an on-rate constant (kon) of 364000 M⁻¹ s⁻¹.
